Columns and labels:
C4b = C4b (UniProt P0C0L4); assay: cell-based or functional assay
C3b = C3b (UniProt P01024); assay: cell-based or functional assay
Sequence of C3b (P01024 749-1663 limits assumed, chain 1 of 2): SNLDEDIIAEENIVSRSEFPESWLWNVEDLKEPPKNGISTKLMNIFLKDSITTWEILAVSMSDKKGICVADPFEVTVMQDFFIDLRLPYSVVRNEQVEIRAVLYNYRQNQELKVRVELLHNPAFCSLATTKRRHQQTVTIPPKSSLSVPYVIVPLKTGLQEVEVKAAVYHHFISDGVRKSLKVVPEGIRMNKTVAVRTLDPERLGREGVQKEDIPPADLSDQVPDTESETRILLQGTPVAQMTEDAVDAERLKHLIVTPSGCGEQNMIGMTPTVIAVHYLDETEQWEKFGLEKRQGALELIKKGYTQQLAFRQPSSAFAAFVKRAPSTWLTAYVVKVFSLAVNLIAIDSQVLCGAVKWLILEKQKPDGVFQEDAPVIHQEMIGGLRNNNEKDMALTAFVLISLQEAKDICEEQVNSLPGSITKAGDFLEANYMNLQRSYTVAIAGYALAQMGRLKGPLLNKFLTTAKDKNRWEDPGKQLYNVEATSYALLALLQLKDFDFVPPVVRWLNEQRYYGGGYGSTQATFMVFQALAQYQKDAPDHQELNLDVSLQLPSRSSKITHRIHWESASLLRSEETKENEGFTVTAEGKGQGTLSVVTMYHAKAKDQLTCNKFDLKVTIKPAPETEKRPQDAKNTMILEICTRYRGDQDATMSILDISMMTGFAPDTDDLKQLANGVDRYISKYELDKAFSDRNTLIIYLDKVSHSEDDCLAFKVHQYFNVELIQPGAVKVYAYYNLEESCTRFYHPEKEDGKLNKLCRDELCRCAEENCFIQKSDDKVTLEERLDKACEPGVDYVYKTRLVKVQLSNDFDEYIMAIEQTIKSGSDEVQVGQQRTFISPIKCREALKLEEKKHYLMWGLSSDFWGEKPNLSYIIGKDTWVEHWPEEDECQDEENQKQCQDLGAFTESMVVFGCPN
Sequence of C3b (P01024 23-667 limits assumed, chain 2 of 2): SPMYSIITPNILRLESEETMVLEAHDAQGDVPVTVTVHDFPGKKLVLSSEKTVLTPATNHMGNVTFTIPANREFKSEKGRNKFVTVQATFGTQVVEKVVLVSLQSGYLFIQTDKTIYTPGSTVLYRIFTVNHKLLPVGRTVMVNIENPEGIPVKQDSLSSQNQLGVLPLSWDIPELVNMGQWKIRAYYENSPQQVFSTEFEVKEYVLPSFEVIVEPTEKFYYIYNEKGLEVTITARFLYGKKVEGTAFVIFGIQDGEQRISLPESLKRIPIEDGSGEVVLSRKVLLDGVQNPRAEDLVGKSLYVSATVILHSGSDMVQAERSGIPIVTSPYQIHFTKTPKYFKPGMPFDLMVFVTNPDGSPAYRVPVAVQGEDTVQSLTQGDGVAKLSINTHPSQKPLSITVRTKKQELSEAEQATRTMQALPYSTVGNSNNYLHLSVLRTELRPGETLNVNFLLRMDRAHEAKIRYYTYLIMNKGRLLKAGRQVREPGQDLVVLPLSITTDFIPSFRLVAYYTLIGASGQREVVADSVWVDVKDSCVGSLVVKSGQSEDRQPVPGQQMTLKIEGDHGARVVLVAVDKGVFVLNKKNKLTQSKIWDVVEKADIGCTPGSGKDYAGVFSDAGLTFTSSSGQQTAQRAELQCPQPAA

Sequence of C4b (P0C0L4 20-1744): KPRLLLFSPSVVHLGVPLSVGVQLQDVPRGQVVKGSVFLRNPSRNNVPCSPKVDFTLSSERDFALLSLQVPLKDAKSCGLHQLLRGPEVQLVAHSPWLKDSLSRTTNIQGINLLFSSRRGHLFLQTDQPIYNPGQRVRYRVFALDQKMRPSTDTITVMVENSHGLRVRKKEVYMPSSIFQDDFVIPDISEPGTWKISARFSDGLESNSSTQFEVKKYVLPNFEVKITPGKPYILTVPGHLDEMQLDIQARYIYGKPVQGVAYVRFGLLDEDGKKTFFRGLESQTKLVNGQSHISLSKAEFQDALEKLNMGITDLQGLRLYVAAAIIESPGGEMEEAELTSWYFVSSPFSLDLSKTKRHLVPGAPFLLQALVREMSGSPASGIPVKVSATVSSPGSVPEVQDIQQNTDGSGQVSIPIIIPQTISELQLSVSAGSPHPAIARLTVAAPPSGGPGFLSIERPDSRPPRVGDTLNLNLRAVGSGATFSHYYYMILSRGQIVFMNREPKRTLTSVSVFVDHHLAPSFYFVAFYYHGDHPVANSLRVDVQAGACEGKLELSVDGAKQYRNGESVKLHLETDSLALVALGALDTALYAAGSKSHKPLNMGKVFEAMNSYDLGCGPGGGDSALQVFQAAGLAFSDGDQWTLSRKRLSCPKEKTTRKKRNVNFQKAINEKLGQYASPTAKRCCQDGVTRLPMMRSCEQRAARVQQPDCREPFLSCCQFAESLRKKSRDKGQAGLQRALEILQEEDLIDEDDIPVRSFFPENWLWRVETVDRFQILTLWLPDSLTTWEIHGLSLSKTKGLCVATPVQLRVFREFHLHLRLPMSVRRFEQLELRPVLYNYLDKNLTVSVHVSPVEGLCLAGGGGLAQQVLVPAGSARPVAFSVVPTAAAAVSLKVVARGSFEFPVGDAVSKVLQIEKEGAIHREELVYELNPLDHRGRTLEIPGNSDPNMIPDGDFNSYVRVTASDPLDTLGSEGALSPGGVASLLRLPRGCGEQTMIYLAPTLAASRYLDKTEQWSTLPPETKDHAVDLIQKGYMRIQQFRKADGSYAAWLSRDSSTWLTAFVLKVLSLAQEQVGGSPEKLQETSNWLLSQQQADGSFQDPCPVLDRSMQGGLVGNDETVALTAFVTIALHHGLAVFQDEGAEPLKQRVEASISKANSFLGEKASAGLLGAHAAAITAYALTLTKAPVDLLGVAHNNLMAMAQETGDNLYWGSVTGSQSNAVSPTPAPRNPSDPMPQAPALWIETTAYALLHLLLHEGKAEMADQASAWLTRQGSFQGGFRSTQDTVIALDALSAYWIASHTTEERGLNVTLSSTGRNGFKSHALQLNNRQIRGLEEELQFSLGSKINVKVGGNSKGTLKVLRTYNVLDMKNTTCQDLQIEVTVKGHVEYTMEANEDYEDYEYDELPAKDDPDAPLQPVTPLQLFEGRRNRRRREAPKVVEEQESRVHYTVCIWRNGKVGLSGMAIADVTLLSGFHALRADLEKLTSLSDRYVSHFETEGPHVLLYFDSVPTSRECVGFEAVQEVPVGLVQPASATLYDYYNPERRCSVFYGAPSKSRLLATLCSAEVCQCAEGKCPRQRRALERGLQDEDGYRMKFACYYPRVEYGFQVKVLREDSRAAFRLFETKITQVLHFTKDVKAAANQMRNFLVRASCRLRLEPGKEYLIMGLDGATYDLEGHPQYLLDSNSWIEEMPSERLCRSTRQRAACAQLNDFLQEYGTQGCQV

histidine-tagged Smallpox Inhibitor of Complement Enzymes (SPICEhis) (from UniProt P68638 20-263)
speed as cofactor in the degradation of C4b, against VCPhis (C4b): 6 fold
efficiency as cofactor in the degradation of C3b, against VCPhis (C3b): 100 fold

From patent publication US20060115897A1
